The values below come from the nanobody polyreactivity screen of Harvey et al. (2022).

The nature of this data set: yeast display, Sf9 membrane polyspecificity reagent, FACS + sequencing; frameworks hold sequencing errors. Summed up: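 Nanobodies came from a synthetic yeast display library in Saccharomyces cerevisiae BJ5465, induced with galactose for 36–48 hours and stained for 1 hour at 4 °C with 10% biotinylated, detergent-solubilized Sf9 membrane reagent. Cells were enriched on streptavidin microbeads and then FACS-sorted, with low and high (top ~1%) gates set on anti-HA fluorescence for expression and streptavidin fluorescence for reagent binding. Each polyreactivity label reflects the gate a clone came from. Genes were amplified by colony PCR, sequenced by MiSeq 2 × 250 and filtered by CDR length.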
For the sequence “QVHLVESGGGLVQAGGSLRLSCAASGFIFYYYTMGWYRQAPGKEREFVAAITYSGGRTYYADSVKGRFTISRDNAKNSVYLQMNSLKPEDTSVYYCAAVPRYGPSYRMDYWGQGTQVTVSS”, the “polyreactivity (PSR sort gate)” value was “high polyreactivity”.
For “QVHLVESGGGLVQAGGSLRLSCAASGFTFDAYAMGWYRQAPGKERELVAAITRRSGSTYYADSVKGRFTISRDNAKNTVYLQMNSLKPEDTAVYYCAAVSVHRLGSTFGYWGQGTQVTVSS” the value was “high polyreactivity”.
For “QVHLVESGGGLVQAGGSLRLSCAASGFTFKDYAMGWYRQAPGKHTELVAAISYSGGSTYYADSVKGRFTISRDNAKNTVYLQMYSLKPEDTAVYYCNKGYPYVAYDYWGQGTQVTVSS” the value was “high polyreactivity”; for “QVHLVESGGGLVQAGGSLRLSCAASGFTFRVYAMGWYRPAPGKERELVAAITKRGGSTYYADSVKGRFTISRDNAKNTVYLQMNSLKPEDTAGYYCATENTPHYASHGYWGQGTQVTVSS”, “high polyreactivity”.
For “QVHLVESGGGLVQAGGSLRLSCAASGFTFSTYAMGVSRQAPGKEREWVAAISSGGTTNYADSEKGRFTISRDNAMNTVYLQMNCLKPEDTAVYYCATGYGRWTAYSTSYDYWGQGTQVTVSS” the value was “low polyreactivity”.
Turning to “QVHLVESGGGLVQAGGSLRLSCAASGFTFSYYAMGWYRQPPGKERELVAAITTSGGRTYYADSVKGRFPISRDNAKNTVYLQMNSLKPEDTAVYYCAATYPRYYSGEFDYWGQGTQVTVSS”, the “polyreactivity (PSR sort gate)” value is listed as “high polyreactivity”.
Turning to “QVHLVESGGGLVQAGGSLRLSCAASGFTFTLYAMGWYRQAPGKERELVAAIYFSGGNTYYADSVKGRFTISRDNAKNTVYLQMNSLKPEDTAVYYCAAEYYPSASYYYGWYTIFWLITRDDYYWGQGTQVTVSS”, the “polyreactivity (PSR sort gate)” value is reported as “high polyreactivity”.
For “QVHLVESGGGLVQAGGSLRLSCAASGFTFVSYAMGWYRQAPGKERELVDDINQSGGSTYYADSLKGRFTISRDNAKNTVYLQMNSQKPEDTAVYYCARDGDLWYYKGYGTLFDYWGQGTQVTVSS” the value was “low polyreactivity”; for “QVHLVESGGGLVQAGGSLRLSCAASGFTFYRTAMGWYRQPPGKERELVAAITRGASTYYADSVKGRFTISRDNAKNNVYLQMNSLKPEDTAVYYCAADRYYYRGRYYGYTREFDYWGQGTQVTVSS”, “high polyreactivity”.
For “QVHLVESGGGLVQAGGSLRLSCAASGFTFYSYAMGWYRQAPGKERELVANITIGGSTYADSVKGRFTISRDNAKNTVYLQMNSLKPEDTAVYYCARGYRVVGDPLYGDYDYWGQGTQVTVSS” the value was “low polyreactivity”; for “QVHLVESGGGLVQAGGSLRLSCAASGFTSQYYAMGWYRQAPGKERELVAAITLRDGSTYYADSVKGRFTISRDNAKNTVYLQMNSLKPEDTAVYYCNTDATSDPYGFGYWGQGTQVTVSS”, “low polyreactivity”.
For “QVHLVESGGGLVQAGGSLRLSCAASGGLFTSYDMGWYRQEPGKEREFVAGISDSGGSTYYADSVKGRFTISRDNAKNTVYLQMNSLKPEVTAVYYCAVESYRRYYYWGQGTQVTVSS” the value was “high polyreactivity”; for “QVHLVESGGGLVQAGGSLRLSCAASGIFSRYAMRWYRQAPGKERELVDAISSGDSTNYADSVKGRFTISRDNAKNTVYLQMNSLKPEDTAVYYCATERSHLASGQGYYYVQTFYYWGQGTKVTVSS”, “low polyreactivity”; for “QVHLVESGGGLVQAGGSLRLSCAASGIIFPSYVMGWYRQAPGKEWELVARISARGGRTYYADSVKGRFTISRDNAKNTVYLQMNSLKPEDTAVYYCAARWGITTWYDYWGQGTQVTVSS”, “high polyreactivity”.
With “QVHLVESGGGLVQAGGSLRLSCAASGIIFSDYALGWYRQAPGKERELVAAITSSGCSTYYADSVKGRFTISRDNAKNTVYLQMNSLKPEDTAVYYCNARYRRKSWRPFDYWGQGTQVTVSS”, the “polyreactivity (PSR sort gate)” value is on record as “high polyreactivity”.
For “QVHLVESGGGLVQAGGSLRLSCAASGIIFYANVMGWYRQAPGKERELVAGISRNGGRTYYADSVKGRFTFSRDNAKNTVYLQMICLKPEDTAVYYCAARGSYTSIFDYWGQGTQVTVSS” the value was “high polyreactivity”; for “QVHLVESGGGLVQAGGSLRLSCAASGITFHGYAMGWYRQAPGKERELVAAISDSGSSTYYADSVKGRFTISRDNAKNTVYLQMNSLKPEDTAVYYCAAVSGFYDQYDYWGQGTQVTVSS”, “low polyreactivity”; for “QVHLVESGGGLVQAGGSLRLSCAASGITFRSYAMGWYRQAPGKERELVAAISTSGGRTYYADSVKGRFTISRDNAKNTVYLQMNSLKPEDTAVYYCNKVGGVYGYYAYGLGYWGQGTQVTVSS”, “high polyreactivity”.
For “QVHLVESGGGLVQAGGSLRLSCAASGITFYIYAMGWYRQAPGTERELVAAISWRTGRTYYADSVKGRFTISRDNAKNTVYLQMNSLKPEYTAVYYCAAGVWVAGAFDYWGQGTQVNVSS” the value was “high polyreactivity”.
For “QVHLVESGGGLVQAGGSLRLSCAASGLIFARNAMGWYSQAPGKEREMVAAISRSGSTNYADSVKGRFTISRDNAKNTVYLQMNSLKPEDTAVYYCAADHARYLGFPRVDYWGQGTQVTVSS” the value was “low polyreactivity”; for “QVHLVESGGGLVQAGGSLRLSCAASGLTFAWYAMGWYSQAPGKERELVAVISNGGSTNDADSVKGRFTISRDNAKNTVYLQMNSLKPEDTAVYYCAAGWVWSGNDYYYWGQGTQVTVSS”, “low polyreactivity”; for “QVHLVESGGGLVQAGGSLRLSCAASGLTFGVFAMGWYRQAPGKERELVAAITWRGDTTYYADSVKGRFTISRDNAKNTVYLQMNSLKPEDTAVYYCNAVFFYHGTKPAFISHDYWGQGTQVTVSS”, “low polyreactivity”.
In the case of “QVHLVESGGGLVQAGGSLRLSCAASGLTFIPNAMGWYRQAPGKERELVAAISGTGGSTYYADSVKGRFTISRDNAKNTVYLQMNRLKPEDTAVYYCAARRRYKSGYWGQGTQVTVSS”, the “polyreactivity (PSR sort gate)” value was “high polyreactivity”.
For the sequence “QVHLVESGGGLVQAGGSLRLSCAASGLTFQYYAMGWYRQAPGKQRELVAAISSRGGRTYYADSVKGRFTISRDNAKNTVYLQMNSLKPEDTAVYYCAAEWWAPDRVTRGRIYGYWGQGTQVTVSS”, the “polyreactivity (PSR sort gate)” value is on record as “high polyreactivity”.
For “QVHLVESGGGLVQAGGSLRLSCAASGNIFTINAMGWYRQAPGKERDLVARITWGGGNTFYADSVKGRFTISRDNAKNTVYLEMNSLKPEDTAVYYCNAVGPYDYRYGKYDYWGQGTQVTVSS” the value was “low polyreactivity”; for “QVHLVESGGGLVQAGGSLRLSCAASGNIIPGNAMGWYRQAPGKERELVAAISYSGVRTHYADSVKGRFTISRDNAKNTVYLQMNSLKPEDTAVYYCAASGEQDYDYWGQGTQVTVSS”, “low polyreactivity”; for “QVHLVESGGGLVQAGGSLRLSCAASGNTFYWYVMGWYRQAPGKERDLVARITSSGGSTNYADSVKGRFTISRDNAKNTVYLQMISLKPEDTAVYYCAADDIYLYGGGTDYYYWGQGTQVTVSS”, “low polyreactivity”.
For “QVHLVESGGGLVQAGGSLRLSCAASGNTHVKNAMGWYRQAPGKERELVAAISSSGGRTYYGDSVKGRFTISRDNAKNTVYLQMNSLKPDDTAVYYCAARYPSGYYYWGQGTQVTVSS” the value was “high polyreactivity”; for “QVHLVESGGGLVQAGGSLRLSCAASGRIFDYYAMGWYRQAPGKERELVARITSGGTTNYADSVKGRFTISRDNENNTVYLQMNSLKPEYTEVYYCKAHDYSDPLQMDYWGQGTQVTVSS”, “low polyreactivity”; for “QVHLVESGGGLVQAGGSLRLSCAASGRIFGRNAMGWYRQAPGQERELVAAITSGSSTYYADSVKGRFTISRDNAKNTVYLQMNSLKPEDTAVYYCAARTIGYHYTGGYGYWGQGTQVTVSS”, “high polyreactivity”.
